Experiment [1] concerns the target T1, human PD-L1-Fc protein (human, UniProt Q9NZQ7 19-239).
T1 construct: Bought from R&D Systems; also called immobilised PD-L1-Fc; not shown: Fc part of the bought fusion protein, not described
Briefly: ELISA, Fab on coated human PD-L1-Fc; ratio from extrapolating an OD of 0.3 at pH 6 versus pH 7.4.

Experiment [2] concerns the target T1, human PD-L1-Fc protein. Briefly: ELISA, Fab on coated human PD-L1-Fc, pH 7.4; pH 7.4. (In general: An ELISA detects its analyte on a solid surface through an enzyme-linked reagent.)
The target in experiment [3] is T2, biotinylated human PD-L1 (human, UniProt Q9NZQ7 19-239, limits assumed, biotinylated (sites not given)).
T2 construct: Bought from R&D Systems; also called biotinylated-PD-L1; human PD-L1 biotin
The experiment can be described thus: competition ELISA, Fab with biotinylated PD-L1 on coated PD-1-Fc, pH 6.

In experiment [4] the target is T2, biotinylated human PD-L1. Briefly: competition ELISA, Fab with biotinylated PD-L1 on coated PD-1-Fc; ratio of IC50 values.
In experiment [5] the target is T3, human PD-L1 on cells (human, UniProt Q9NZQ7 19-290).
T3 construct: Endogenous on MDA-MB-231 cells or transfected into HEK293FF cells (Sino Biological plasmid); the assay field says which; also called native PD-L1 on MDA-MB-231 cells; PD-L1 expressing MDA-MB-231 cells
Briefly: flow cytometry on MDA-MB-231 cells, Krebs buffer, pH 6.5. The method, then: (§1) Anti-PD-L1 affinity matured Fabs were tested for their ability to bind to native PD-L1 in a cell line, (MDA-MB-231 cells) in a buffer resembling the tumor microenvironment (Krebs-lactate).
For orientation: Flow cytometry measures light scatter and fluorescence of single cells or particles in a stream.

Experiment [6] concerns the target T1, human PD-L1-Fc protein. The experiment can be described thus: ELISA, purified Fab on coated human PD-L1-Fc, pH 6 (FIG. 4).
Experiment [7] concerns the target T1, human PD-L1-Fc protein. Briefly: BIAcore off rate, unpurified periplasmic extract Fab on PD-L1, pH 7.4. (SPR reads the build-up and loss of mass on a sensor chip optically.)
Experiment [8] has as its target T1, human PD-L1-Fc protein. Briefly: BIAcore off rate, unpurified periplasmic extract Fab on PD-L1.
Experiment [9] addresses T2, biotinylated human PD-L1. Briefly: competition ELISA, Fab with biotinylated PD-L1 on coated PD-1-Fc, pH 7.4.
Experiment [10] addresses T1, human PD-L1-Fc protein. Briefly: BIAcore off rate, unpurified periplasmic extract Fab on PD-L1, pH 6.
Experiment [11] concerns the target T2, biotinylated human PD-L1. The experiment can be described thus: competition ELISA, Fab with biotinylated PD-L1 on coated PD-1-Fc, pH 6.5.
Experiment [12] concerns the target T1, human PD-L1-Fc protein. Briefly: ELISA, Fab on coated human PD-L1-Fc, pH 6.
For experiment [13], the target named is T2, biotinylated human PD-L1. The experiment can be described thus: competition ELISA, Fab with biotinylated PD-L1 on coated PD-1-Fc.
The target in experiment [14] is T3, human PD-L1 on cells. The experiment can be described thus: flow cytometry on MDA-MB-231 cells, Krebs buffer, pH 6. The method, then: as §1
For experiment [15], the target named is T3, human PD-L1 on cells. Briefly: flow cytometry on MDA-MB-231 cells, Krebs buffer, pH 7.4. The method, then:
as §1

The target of experiment [16] is T2, biotinylated human PD-L1. Briefly: competition ELISA, Fab with biotinylated PD-L1 on coated PD-1-Fc, pH 6. The source holds these as a separate data set.
Experiment [17] addresses T3, human PD-L1 on cells. Briefly: flow cytometry on MDA-MB-231 cells, Krebs buffer; ratio of EC50 values. The method, then:
as §1

For experiment [18], the target named is T1, human PD-L1-Fc protein. Briefly: SPR BIAcore, mAb over immobilised PD-L1-Fc, pH 7.0. How it is done: (§2) To assess the affinity of selected IgG formatted purified clones to human PD-L1 at pH6.0 and at pH7.4, human PD-L1-Fc protein was coated by amine coupling. Surface plasmon resonance (SPR) (BIAcore 3000, GE Healthcare) was used to determine the binding kinetics of selected IgG formatted purified clones to human PD-L1 at pH6.0 and at pH 7.4. Approximately 3000 RU of human PD-L1 Fc (R&D Systems) at 50 μg/ml in Acetate buffer pH 5.0 was immobilized onto a CM5 chip using the standard amine coupling procedure. QC of the PD-L1 immobilization was performed using an anti-PD-L1 commercial antibody (R&D systems cat. no. AF156) at 2.0 μg/ml. 1×HBS-EP pH 7.4 or HBS-EP pH 7.0 or HBS-EP […] citrate buffer pH 6.5 or HBS-EP […] citrate buffer pH 6.0, were utilized as running buffers during binding kinetic measurements. […] Fitting 1:1 binding with mass transfer was applied to the curves using the BIAevaluation software to calculate the kinetic constants of the antibody-antigen interactions including association rate (ka), dissociation rate (kd) and affinity (KD).

The target of experiment [19] is T2, biotinylated human PD-L1. The experiment can be described thus: competition ELISA, mAb with biotinylated PD-L1 on coated PD-1-Fc (FIG. 1A); PD-L1 binding to PD-1 (FIG. 1A).
The target of experiment [20] is T1, human PD-L1-Fc protein. The experiment can be described thus: SPR BIAcore, mAb over immobilised PD-L1-Fc. The method, then: as §2
For experiment [21], the target named is T1, human PD-L1-Fc protein. The experiment can be described thus: SPR BIAcore, mAb over immobilised PD-L1-Fc, pH 6.0.
Experiment [22] addresses T3, human PD-L1 on cells. Briefly: flow cytometry on MDA-MB-231 cells, Krebs buffer with lactate, pH 7.4 (FIG. 3); pH 7.4. How it is done: (§3) In order to mimic an acidic tumor environment milieu with tumor cells expressing PD-L1 (The metabolism of tumors in the body, Warburg et al. J Gen Physiol. 1927; 8:519-30) the following buffers were utilised: Krebs ringer bicarbonate buffer (KRB, Amsbio catalog number KRB-1000) with 1 mM lactic acid (Sigma catalog number 252476-50DG) for pH 7.4; KRB plus 15 mM lactic acid for pH 6.5 and KRB plus 20 mM lactic acid for pH 6.0). 3 fold dilutions (100 nM to 0.0005 nM; 0) of the Fabs or IgG were prepared in the respective pH buffers and incubated with 0.60E05 MDA-MB-231 cells for 60 minutes at 4° C. The cells were then washed 3× with the respective pH buffers, at 300 g for 3 min. The cells were then incubated with 50 μl of anti-human IgG (Fab specific)-FITC (Sigma, catalog number F5512-1ML) at 1:100 dilution in the respective pH buffers. Binding of the IgG or Fab to PD-L1 expressing cells was measured by FACS (Attune Nxt) and a total of 10.000 cells were acquired per sample.

Experiment [23] has as its target T3, human PD-L1 on cells. The experiment can be described thus: flow cytometry on MDA-MB-231 cells, Krebs buffer with lactate, pH printed as 6.6 (FIG. 3); pH printed as 6.6 (experiment described at pH 6.5); pH 6.6. How it is done: as §3
In experiment [24] the target is T2, biotinylated human PD-L1. Briefly: competition ELISA, mAb with biotinylated PD-L1 on coated B7-1-Fc (CD80) (FIG. 1B); PD-L1 binding to CD80 (FIG. 1B).
Experiment [25] concerns the target T1, human PD-L1-Fc protein. Briefly: SPR BIAcore, mAb over immobilised PD-L1-Fc, pH 7.4. How it is done: as §2
The target in experiment [26] is T3, human PD-L1 on cells. Briefly: flow cytometry on MDA-MB-231 cells, Krebs buffer with lactate, pH 6.0 (FIG. 3); pH 6.0. The method, then:
as §3

The target of experiment [27] is T1, human PD-L1-Fc protein. Briefly: SPR BIAcore, mAb over immobilised PD-L1-Fc, pH 6.5. The method, then: as §2
Experiment [28] addresses T1, human PD-L1-Fc protein. Briefly: SPR BIAcore off rate, mAb over immobilised PD-L1-Fc (FIG. 2). The method, then: as §2

Positions count from the first letter of the chain named.

T1 sequence (Q9NZQ7 19-239 limits assumed): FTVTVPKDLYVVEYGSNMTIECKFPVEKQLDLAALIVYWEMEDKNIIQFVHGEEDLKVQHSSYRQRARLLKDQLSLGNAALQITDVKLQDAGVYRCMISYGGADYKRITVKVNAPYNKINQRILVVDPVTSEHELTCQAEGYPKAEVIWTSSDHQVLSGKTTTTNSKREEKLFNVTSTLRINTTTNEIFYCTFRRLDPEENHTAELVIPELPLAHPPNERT
T2 sequence (Q9NZQ7 19-239 limits assumed): as above
T3 sequence (Q9NZQ7 19-290 limits assumed): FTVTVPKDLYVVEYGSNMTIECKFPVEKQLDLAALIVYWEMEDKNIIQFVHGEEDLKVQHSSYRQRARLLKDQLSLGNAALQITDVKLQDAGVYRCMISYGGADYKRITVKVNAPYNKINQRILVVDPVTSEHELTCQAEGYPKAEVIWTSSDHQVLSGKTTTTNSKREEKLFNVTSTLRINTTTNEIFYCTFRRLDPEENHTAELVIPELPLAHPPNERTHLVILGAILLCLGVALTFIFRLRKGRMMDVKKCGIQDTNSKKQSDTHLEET

B1: Fab 8D06 (Fab, V domains shown)
VH: QVQLVQSGGGVVQPGRSLRLSCAASGFTFSSYGMYWVRQAPGKGLEWVAVISYDGSNKYYADSVKGRFTISRDNSKNTLNLQMNSLRAEDTAVYYCAKGALTHWGVVIGDGMDVWGQGTTVTVSS
VL: NFMLTQPHSVSESPGKTVTISCVLSPRTHAGHYYRWYQQRPGSSPTTVIYEDDQRPSGVPDRFSGSIDSSSNSASLTISGLKTEDEADYYCQSFDSTNPWVFGGGTKLTVL
notes: Purified Fab prepared from IgG with the Pierce kit; also called 8D06 Fab
The EC50 is the concentration giving half of the maximal effect. The koff is a measure of how fast the partners let go of each other. Broadly, the IC50 is the concentration that gives 50% inhibition. As to B1, the “Ratio pH 6:7.4” value in the experiment with human PD-L1-Fc protein [1] is 39; in the experiment with biotinylated human PD-L1 [4] it was greater than 7.63; with human PD-L1 on cells [17] it was 11. Also, the EC50 with human PD-L1-Fc protein [2] was greater than 10 nM; in the experiment with human PD-L1 on cells [5], 2.92 nM; in the experiment with human PD-L1-Fc protein [12], 0.11 nM; with human PD-L1 on cells [14], 1.45 nM; with human PD-L1 on cells [15], 16 nM. Also, the “fold less (IC50) than the control Fab 2.7A04OPT at pH 6” value with biotinylated human PD-L1 [3] was roughly 3 fold. Besides, the “concentration at saturation of binding” value with human PD-L1-Fc protein [6] is 4 nM. The koff came to 0.00345 s⁻¹ in the experiment with human PD-L1-Fc protein [7] and 0.000699 s⁻¹ with human PD-L1-Fc protein [10]. Moreover, the “Ratio pH 6 vs 7.4” value in the experiment with human PD-L1-Fc protein [8] was found to be 20. For the same molecule, the results for the IC50 in the experiment with biotinylated human PD-L1 [9], with biotinylated human PD-L1 [11] and in the experiment with biotinylated human PD-L1 [16] were greater than 100 nM, 40 nM and 13.1 nM, respectively. Moreover, the “fold less inhibitory activity at pH 6.5 than at pH 6” value with biotinylated human PD-L1 [13] is roughly 3 fold.

B2: mAb 2A09 (antibody, V domains shown)
VH: B1 VH
VL: B1 VL with V23T, L24R, P26S, R27G, T28S, H29I, G31S, H32N, Y34V, R35Q
notes: Fully human; also called 2A09_WT; 2A09 WT
Usually Kd stands for the concentration at which binding is half-saturated. Lower therefore signals higher affinity. A word on the kon: it is the second-order rate constant of association. Higher therefore signals faster complex formation. Turning to B2, the Kd with human PD-L1-Fc protein [18] came to 0.57 nM; in the experiment with human PD-L1-Fc protein [21], 0.13 nM; with human PD-L1-Fc protein [25] it was 2.6 nM; with human PD-L1-Fc protein [27] it was 0.18 nM. In addition, the koff with human PD-L1-Fc protein [18] is 0.00711 s⁻¹; in the experiment with human PD-L1-Fc protein [21], 0.000865 s⁻¹; with human PD-L1-Fc protein [25] it was 0.0271 s⁻¹; with human PD-L1-Fc protein [27], 0.00129 s⁻¹. Further, the on-rate constant (kon) in the experiment with human PD-L1-Fc protein [18] turned out to be 1.25e+07 M⁻¹ s⁻¹; in the experiment with human PD-L1-Fc protein [21], 6.77e+06 M⁻¹ s⁻¹; in the experiment with human PD-L1-Fc protein [25], 1.05e+07 M⁻¹ s⁻¹; in the experiment with human PD-L1-Fc protein [27], 7.36e+06 M⁻¹ s⁻¹. For the same molecule, the IC50 with biotinylated human PD-L1 [19] was found to be 0.4 nM; with biotinylated human PD-L1 [24] it was 1.2 nM. For the same molecule, the “fold higher affinity at pH 6 than at pH 7.4” value with human PD-L1-Fc protein [20] was roughly 20 fold. The figures for the EC50 with human PD-L1 on cells [22], with human PD-L1 on cells [23] and with human PD-L1 on cells [26] were 16.3 nM, 6.1 nM and 2.4 nM, respectively. Besides, the “fold better off rate at pH 6.0 than at pH 7.4” value in the experiment with human PD-L1-Fc protein [28] is roughly 5 fold.

These data come from patent US20220356255A1 (CENTESSA PHARMACEUTICALS UK, published 2022).
